Experimental findings from publication PMC3939493, “Structure of the SAS-6 cartwheel hub from Leishmania major” (eLife, 2014) are described below.

Data set [1] addresses T1, SAS-6 (Danio rerio, UniProt Q7ZVT3, F131D).
T1 construct: gene sass6; Dr SAS-6^1–326
T1 sequence (Q7ZVT3 1-326 F131D): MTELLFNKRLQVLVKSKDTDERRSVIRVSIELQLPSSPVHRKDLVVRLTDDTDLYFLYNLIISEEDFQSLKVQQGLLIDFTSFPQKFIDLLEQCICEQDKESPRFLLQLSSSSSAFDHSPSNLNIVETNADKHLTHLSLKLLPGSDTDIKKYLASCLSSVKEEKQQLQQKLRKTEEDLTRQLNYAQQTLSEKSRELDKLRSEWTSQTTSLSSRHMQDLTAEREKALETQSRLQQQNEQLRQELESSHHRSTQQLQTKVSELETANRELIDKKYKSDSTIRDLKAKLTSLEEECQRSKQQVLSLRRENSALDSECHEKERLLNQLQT
The data set can be described thus: SEC-MALS of purified protein with […] PK9119 (oligomerization reduced, less than for L. major). In kind it is biochemical.

Data set [2] concerns the target T2, SAS-6 (Leishmania major, UniProt E9AFQ5).
T2 construct: gene LMJF_35_4280; SAS-6^97–424
T2 sequence (E9AFQ5 97-424): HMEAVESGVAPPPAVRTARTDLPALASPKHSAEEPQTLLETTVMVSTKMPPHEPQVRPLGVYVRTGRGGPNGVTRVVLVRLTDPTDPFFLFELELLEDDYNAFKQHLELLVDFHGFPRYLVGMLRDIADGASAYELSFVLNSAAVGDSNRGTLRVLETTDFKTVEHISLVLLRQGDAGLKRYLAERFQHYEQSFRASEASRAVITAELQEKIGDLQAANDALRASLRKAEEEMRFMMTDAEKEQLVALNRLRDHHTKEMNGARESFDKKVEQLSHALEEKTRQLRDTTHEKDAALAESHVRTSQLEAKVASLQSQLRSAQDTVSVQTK
The data set can be described thus: SEC-MALS of purified protein with […] PK9119 (oligomerization reduced). In kind it is biochemical.

In data set [3] the target is L. major SAS-6^97–274 wild-type (Leishmania major). The data set can be described thus: AUC; sedimentation equilibrium; 100, 200 and 400 µM protein; 11300, 17000 and 21200 rpm; 4°C; 50 mM Tris, 100 mM NaCl, pH 8.0; monomer-dimer equilibrium model (dimer to monomers).
The target in data set [4] is L. major SAS-6^97–320 F257E (Leishmania major). Kind of data set: crystal structure; L. major SAS-6^97–320 F257E, sitting drop, 100 mM NaCitrate pH 5.85, 21% PEG-3000, 16°C; 94.7 mg/ml protein; 2.9 Å; four molecules in the asymmetric unit.
In data set [5] the target is L. major SAS-6^97–424 F257E mutant (Leishmania major). Kind of data set: SEC-MALS; Superdex S-200 10/300, 50 mM bisTris, 100 mM NaCl, pH 7.0, 0.126% DMSO, with or without 1 mM PK9119; L. major constructs injected at 25 mg/ml (675 µM monomer), zebrafish constructs at 10 mg/ml (263 µM monomer); peak concentrations about 10-fold lower.
The target in data set [6] is L. major SAS-6^97–424 wild-type (Leishmania major). The description is as above.
The target in data set [7] is L. major SAS-6^97–274 Y215K mutant (Leishmania major). The data set can be described thus: AUC; sedimentation equilibrium; 100, 200 and 400 µM protein; 11300, 17000 and 21200 rpm; 4°C; 50 mM Tris, 100 mM NaCl, pH 8.0; monomer-dimer equilibrium model (dimer to monomers).
Data set [8] deals with the molecule itself. Kind of data set: SEC-MALS; Superdex S-200 10/300, 50 mM bisTris, 100 mM NaCl, pH 7.0, 0.126% DMSO, with or without 1 mM PK9119; L. major constructs injected at 25 mg/ml (675 µM monomer), zebrafish constructs at 10 mg/ml (263 µM monomer); peak concentrations about 10-fold lower.

On to `CCc1cc(Br)cc2c(CN(C)C)c[nH]c12` [PK9119, (5-bromo-7-ethyl-1H-indol-3-ylmethyl)-dimethyl-amine], for which, on SAS-6 [1], the “SEC-MALS of purified protein with 1 mM PK9119 (oligomerization reduced, less tha)” value was “zebrafish SAS-6 oligomerization was also affected by the presence of PK9119, although to a lesser extent”. In addition, the “SEC-MALS of purified protein with 1 mM PK9119 (oligomerization reduced)” value on SAS-6 [2] is recorded as “a decrease in the analysed mass from MALS, demonstrating that PK9119 partially affects head-to-head dimerization”.

For “L. major SAS-6^97–274 wild-type (domain or fragment)”, the equilibrium dissociation constant (Kd) in data set [3] was 622 µM.

With “L. major SAS-6^97–320 F257E (domain or fragment)”, in data set [4], the stoichiometry N is 8.

On to “L. major SAS-6^97–424 F257E mutant (domain or fragment)”, for which the stoichiometry N in data set [5] came out at 2.

“L. major SAS-6^97–424 wild-type (domain or fragment)”: in data set [6], the stoichiometry N is 6.

In the case of “L. major SAS-6^97–274 Y215K mutant (domain or fragment)”, in data set [7], the Kd stood at 190 µM.

B1: Danio rerio SAS-6^1–326 F131D mutant (domain or fragment)
chain: GPHMTELLFNKRLQVLVKSKDTDERRSVIRVSIELQLPSSPVHRKDLVVRLTDDTDLYFLYNLIISEEDFQSLKVQQGLLIDFTSFPQKFIDLLEQCICEQDKESPRFLLQLSSSSSAFDHSPSNLNIVETNADKHLTHLSLKLLPGSDTDIKKYLASCLSSVKEEKQQLQQKLRKTEEDLTRQLNYAQQTLSEKSRELDKLRSEWTSQTTSLSSRHMQDLTAEREKALETQSRLQQQNEQLRQELESSHHRSTQQLQTKVSELETANRELIDKKYKSDSTIRDLKAKLTSLEEECQRSKQQVLSLRRENSALDSECHEKERLLNQLQT
notes: Dimer by SEC-MALS; source: E. coli BL21 Rosetta, purified (NiNTA, proteolytic tag cleavage, SEC, ion exchange); not shown: His tag, N-terminal, cleaved
For B1, the “stoichiometry N” value in data set [8] was 2.

B2: Danio rerio SAS-6^1–326 wild-type (domain or fragment)
chain: GPHMTELLFNKRLQVLVKSKDTDERRSVIRVSIELQLPSSPVHRKDLVVRLTDDTDLYFLYNLIISEEDFQSLKVQQGLLIDFTSFPQKFIDLLEQCICEQDKESPRFLLQLSSSSSAFDHSPSNLNIVETNAFKHLTHLSLKLLPGSDTDIKKYLASCLSSVKEEKQQLQQKLRKTEEDLTRQLNYAQQTLSEKSRELDKLRSEWTSQTTSLSSRHMQDLTAEREKALETQSRLQQQNEQLRQELESSHHRSTQQLQTKVSELETANRELIDKKYKSDSTIRDLKAKLTSLEEECQRSKQQVLSLRRENSALDSECHEKERLLNQLQT
notes: also called zebrafish SAS-6; source: E. coli BL21 Rosetta, purified (NiNTA, proteolytic tag cleavage, SEC, ion exchange); not shown: His tag, N-terminal, cleaved
Regarding B2, the binding result in data set [8] is “binds”.
